The target of this experiment is T1, Human Glucose-induced degradation protein 4 homolog (GID4), residues 116-300, N-terminally Avi-tagged, … (human, UniProt Q8IVV7 116-300, biotin (BirA, on the AVI tag)).
T1 construct: Glucose-induced degradation protein 4 homolog (GID4), human, UniProt Q8IVV7, residues 116-300; Construct: N-terminal Strep-SUMO-3C-6xHis-AVI-tag; cleaved with HRV-3C protease, which by the printed order of the tags should leave 6xHis-AVI on the protein; also called hGID4; biotinylated GID4; source: E. coli BL21(DE3), purified (Streptactin XT, HRV-3C cleavage, BirA biotinylation, SEC); not shown: …
T1 sequence (looked up): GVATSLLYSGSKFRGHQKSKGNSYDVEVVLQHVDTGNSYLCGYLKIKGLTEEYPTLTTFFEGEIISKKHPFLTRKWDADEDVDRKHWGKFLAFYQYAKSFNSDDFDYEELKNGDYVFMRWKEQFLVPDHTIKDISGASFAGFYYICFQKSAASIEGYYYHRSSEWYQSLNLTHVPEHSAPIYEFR
The experiment is described as follows: SPR; biotinylated GID4 (116-300) captured on an SA chip (about 2500 RU), Biacore 8K; peptide flowed over; PBS pH 7.4, 0.05% P-20, 1 mM DTT, 1% DMSO. Conditions: both partners purified.

By Kd is commonly meant the constant that tells how readily two partners part at equilibrium.

B1: degron peptide PGLWKS (peptide)
peptide: PGLWKS
notes: Pro/N-degron peptide; also called endogenous degron peptide; PGLWKS degron peptide
The molecule B1 came in with a Kd of 2.13 µM.
